Molecular target: the molecule itself
Assay: SEC; Superose 12 column, 50 mM Hepes pH 7.4, 150 mM sodium chloride, 0.4 mL/min, calibrated with molecular weight markers

B1: D93N mutant of the nucleoside diphosphate kinase of Mycobacterium tuberculosis (enzyme)
chain: MTERTLVLIKPDGIERQLIGEIISRIERKGLTIAALQLRTVSAELASQHYAEHEGKPFFGSLLEFITSGPVVAAIVEGTRAIAAVRQLAGGTNPVQAAAPGTIRGDFALETQFNLVHGSDSAESAQREIALWFPGA
notes: No tag is mentioned; also called D93N Mt-NDPK
B1 was tested, and the “stoichiometry N” value was 6.

From paper PMC3589492, “Intersubunit Ionic Interactions Stabilize the Nucleoside Diphosphate Kinase of Mycobacterium tuberculosis” (PLoS ONE, 2013)
